Key:
c-Src SH2 = test: SH2 binding enrichment of the phosphorylated peptide, bacterial display (enrichment ratio); higher = better substrate or ligand; peptides without Tyr show the background
Grb2 SH2 = Grb2 SH2 (UniProt P62993); test: as above
SHP2-C SH2 = test: as above
c-Src = test: phosphorylation enrichment, bacterial display (enrichment ratio); higher = better substrate or ligand; peptides without Tyr show the background
FGFR1 = FGFR1 (UniProt P11362); test: as above
Hck = Hck (UniProt P08631); test: as above
Fes = Fes (UniProt P07332); test: as above
EPHB2 = EPHB2 (UniProt P29323); test: as above
Jak2 = Jak2 (UniProt O60674); test: as above
FGFR3 = FGFR3 (UniProt P22607); test: as above
AncSZ = test: as above
MERTK = MERTK (UniProt Q12866); test: as above
Fyn = Fyn (UniProt P06241); test: as above
Fer (mouse) = test: as above
EPHB1 = EPHB1 (UniProt P54762); test: as above
c-Abl (mouse) = test: as above
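For SH2 binding enrichment of the phosphorylated peptide, bacterial display in this document: peptide library displayed on the E. coli surface as eCPX fusions, selected cells deep-sequenced, score is each peptide's frequency after selection divided by its frequency in the input.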
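For phosphorylation enrichment, bacterial display in this document: 11-residue human phosphosite peptides and single-mutation variants displayed on the E. coli surface, counted by deep sequencing, each peptide's frequency after selection divided by its frequency in the unselected input library; frequency after pTyr selection over input frequency; kinase dosed for 20-30% of maximal phosphorylation in three min.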

Sequence of Hck (P08631 whole entry, looked up): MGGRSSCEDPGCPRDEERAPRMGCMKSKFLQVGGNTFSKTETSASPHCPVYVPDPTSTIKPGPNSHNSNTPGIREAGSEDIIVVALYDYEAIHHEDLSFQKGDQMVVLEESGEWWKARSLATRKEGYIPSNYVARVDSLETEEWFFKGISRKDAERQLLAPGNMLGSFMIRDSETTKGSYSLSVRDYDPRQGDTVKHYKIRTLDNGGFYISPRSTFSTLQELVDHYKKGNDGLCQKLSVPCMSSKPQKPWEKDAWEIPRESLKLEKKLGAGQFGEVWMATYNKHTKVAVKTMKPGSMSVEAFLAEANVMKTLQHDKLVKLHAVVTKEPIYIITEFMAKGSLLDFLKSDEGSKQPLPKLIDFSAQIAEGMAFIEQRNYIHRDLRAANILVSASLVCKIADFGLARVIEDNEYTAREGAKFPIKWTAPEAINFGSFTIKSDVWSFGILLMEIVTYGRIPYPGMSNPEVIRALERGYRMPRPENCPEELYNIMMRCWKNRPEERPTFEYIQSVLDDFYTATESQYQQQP
Sequence of EPHB1 (P54762 whole entry, looked up): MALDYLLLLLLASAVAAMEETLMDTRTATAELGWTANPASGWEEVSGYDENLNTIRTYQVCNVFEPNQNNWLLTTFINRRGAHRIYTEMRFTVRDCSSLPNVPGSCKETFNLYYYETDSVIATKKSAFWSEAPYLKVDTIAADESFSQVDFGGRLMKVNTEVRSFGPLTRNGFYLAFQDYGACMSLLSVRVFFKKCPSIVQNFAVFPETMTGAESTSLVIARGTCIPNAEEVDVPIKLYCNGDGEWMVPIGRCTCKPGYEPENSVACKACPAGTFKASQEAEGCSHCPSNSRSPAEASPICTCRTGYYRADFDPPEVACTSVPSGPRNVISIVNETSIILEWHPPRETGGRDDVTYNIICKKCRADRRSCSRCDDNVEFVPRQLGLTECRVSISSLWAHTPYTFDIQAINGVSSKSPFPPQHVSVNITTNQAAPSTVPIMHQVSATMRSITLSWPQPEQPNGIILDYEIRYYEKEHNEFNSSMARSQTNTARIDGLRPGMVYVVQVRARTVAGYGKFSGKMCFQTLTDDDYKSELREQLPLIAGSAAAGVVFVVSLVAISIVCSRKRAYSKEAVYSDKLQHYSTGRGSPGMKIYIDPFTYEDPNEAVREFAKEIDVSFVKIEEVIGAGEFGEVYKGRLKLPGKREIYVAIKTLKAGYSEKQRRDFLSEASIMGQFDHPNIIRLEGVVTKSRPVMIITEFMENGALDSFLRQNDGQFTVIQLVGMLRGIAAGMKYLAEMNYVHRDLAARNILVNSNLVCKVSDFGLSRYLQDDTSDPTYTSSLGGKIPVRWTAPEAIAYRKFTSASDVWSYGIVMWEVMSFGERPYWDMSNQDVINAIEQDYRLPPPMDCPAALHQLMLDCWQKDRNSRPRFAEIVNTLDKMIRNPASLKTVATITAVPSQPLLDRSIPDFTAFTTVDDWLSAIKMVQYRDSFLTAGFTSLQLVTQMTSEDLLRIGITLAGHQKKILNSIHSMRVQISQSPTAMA
Sequence of FGFR3 (P22607 whole entry, looked up): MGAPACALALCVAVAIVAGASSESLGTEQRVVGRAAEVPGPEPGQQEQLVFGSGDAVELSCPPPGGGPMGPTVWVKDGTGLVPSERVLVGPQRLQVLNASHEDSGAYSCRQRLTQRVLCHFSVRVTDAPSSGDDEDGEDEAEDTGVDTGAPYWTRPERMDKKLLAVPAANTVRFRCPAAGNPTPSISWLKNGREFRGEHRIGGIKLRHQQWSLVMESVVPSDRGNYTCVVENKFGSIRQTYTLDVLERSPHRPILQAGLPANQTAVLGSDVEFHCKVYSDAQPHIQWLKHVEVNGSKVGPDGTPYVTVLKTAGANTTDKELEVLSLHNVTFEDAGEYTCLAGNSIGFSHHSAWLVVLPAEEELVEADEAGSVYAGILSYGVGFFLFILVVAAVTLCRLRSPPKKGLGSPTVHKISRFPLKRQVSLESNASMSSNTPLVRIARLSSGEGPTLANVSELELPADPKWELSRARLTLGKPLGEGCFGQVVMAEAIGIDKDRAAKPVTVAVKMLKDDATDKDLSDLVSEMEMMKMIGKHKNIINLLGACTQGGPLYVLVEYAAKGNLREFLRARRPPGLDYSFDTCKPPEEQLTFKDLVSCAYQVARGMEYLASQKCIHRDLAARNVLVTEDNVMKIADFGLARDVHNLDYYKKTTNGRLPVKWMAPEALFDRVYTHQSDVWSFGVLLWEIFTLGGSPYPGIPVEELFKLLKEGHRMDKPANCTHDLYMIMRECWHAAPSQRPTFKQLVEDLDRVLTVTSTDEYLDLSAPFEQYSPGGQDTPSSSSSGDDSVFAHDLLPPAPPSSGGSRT
Sequence of FGFR1 (P11362 whole entry, looked up): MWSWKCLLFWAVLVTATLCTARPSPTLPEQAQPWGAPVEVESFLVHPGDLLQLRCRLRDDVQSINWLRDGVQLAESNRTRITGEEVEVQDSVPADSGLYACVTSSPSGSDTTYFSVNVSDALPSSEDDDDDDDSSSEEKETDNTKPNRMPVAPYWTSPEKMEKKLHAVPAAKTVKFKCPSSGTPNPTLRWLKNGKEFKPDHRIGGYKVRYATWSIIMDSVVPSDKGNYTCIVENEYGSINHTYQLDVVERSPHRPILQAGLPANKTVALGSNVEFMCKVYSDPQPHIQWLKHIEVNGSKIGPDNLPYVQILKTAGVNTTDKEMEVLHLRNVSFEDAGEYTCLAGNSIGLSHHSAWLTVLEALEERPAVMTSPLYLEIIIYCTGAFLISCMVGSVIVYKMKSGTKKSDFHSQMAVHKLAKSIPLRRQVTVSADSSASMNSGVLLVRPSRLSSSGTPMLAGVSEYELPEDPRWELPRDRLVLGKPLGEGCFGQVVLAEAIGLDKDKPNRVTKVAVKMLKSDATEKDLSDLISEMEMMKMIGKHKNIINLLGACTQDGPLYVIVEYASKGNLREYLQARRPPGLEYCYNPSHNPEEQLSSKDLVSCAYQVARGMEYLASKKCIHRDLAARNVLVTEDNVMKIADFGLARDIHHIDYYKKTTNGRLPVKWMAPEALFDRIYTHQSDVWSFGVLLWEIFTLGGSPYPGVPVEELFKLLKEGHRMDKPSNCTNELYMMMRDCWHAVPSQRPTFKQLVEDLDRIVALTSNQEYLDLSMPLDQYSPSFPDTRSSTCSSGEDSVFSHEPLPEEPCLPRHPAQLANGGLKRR
Sequence of MERTK (Q12866 whole entry, looked up): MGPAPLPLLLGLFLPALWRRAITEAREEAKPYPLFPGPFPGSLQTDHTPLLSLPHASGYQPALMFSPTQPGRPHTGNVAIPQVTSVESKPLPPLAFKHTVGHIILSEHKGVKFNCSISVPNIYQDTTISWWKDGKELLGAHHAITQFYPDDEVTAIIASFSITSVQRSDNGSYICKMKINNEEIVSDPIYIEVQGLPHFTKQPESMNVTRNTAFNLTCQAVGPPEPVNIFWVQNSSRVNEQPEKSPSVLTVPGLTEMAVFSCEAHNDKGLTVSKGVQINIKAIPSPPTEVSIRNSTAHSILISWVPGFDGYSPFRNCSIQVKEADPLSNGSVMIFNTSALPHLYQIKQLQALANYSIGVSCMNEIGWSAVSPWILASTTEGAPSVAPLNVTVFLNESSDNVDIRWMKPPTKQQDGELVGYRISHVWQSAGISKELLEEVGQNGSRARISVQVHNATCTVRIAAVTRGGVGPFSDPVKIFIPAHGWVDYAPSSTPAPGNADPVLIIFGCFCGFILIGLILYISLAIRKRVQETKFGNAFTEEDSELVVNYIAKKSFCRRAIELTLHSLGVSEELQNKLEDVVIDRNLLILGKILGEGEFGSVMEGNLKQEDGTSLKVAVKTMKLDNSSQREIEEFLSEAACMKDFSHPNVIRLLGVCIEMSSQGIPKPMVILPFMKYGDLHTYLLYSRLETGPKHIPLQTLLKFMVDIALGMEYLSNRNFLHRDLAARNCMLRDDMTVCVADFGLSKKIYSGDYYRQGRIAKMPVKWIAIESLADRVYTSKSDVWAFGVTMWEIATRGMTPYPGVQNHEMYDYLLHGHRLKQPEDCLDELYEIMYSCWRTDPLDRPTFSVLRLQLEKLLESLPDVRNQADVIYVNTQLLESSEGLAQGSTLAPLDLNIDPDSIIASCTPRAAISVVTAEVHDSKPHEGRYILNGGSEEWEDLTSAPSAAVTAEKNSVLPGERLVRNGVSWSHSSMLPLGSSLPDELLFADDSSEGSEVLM
Sequence of Fyn (P06241 whole entry, looked up): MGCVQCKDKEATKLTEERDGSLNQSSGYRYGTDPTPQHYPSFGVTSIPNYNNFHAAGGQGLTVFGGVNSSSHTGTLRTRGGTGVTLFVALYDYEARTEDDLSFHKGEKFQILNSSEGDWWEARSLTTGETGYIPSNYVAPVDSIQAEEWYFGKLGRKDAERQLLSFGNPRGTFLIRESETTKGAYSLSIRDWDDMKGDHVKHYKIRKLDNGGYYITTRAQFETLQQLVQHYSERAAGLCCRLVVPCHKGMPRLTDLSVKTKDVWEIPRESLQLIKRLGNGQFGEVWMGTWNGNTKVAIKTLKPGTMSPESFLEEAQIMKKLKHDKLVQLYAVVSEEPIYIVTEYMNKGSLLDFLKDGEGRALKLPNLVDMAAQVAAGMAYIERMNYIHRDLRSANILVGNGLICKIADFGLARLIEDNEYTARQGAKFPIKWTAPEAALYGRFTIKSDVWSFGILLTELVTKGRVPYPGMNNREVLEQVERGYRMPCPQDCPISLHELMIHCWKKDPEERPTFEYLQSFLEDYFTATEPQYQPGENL
Sequence of Grb2 SH2 (P62993 whole entry, looked up): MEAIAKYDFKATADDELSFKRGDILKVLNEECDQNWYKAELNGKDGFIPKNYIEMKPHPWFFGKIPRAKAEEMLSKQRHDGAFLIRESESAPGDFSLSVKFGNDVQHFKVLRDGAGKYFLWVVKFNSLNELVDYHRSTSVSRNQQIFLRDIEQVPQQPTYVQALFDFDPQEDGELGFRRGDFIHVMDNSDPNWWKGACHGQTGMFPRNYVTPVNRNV

Sequence | SH2 binding enrichment (c-Src SH2) | SH2 binding enrichment (Grb2 SH2) | SH2 binding enrichment (SHP2-C SH2) | phosphorylation enrichment (c-Src) | phosphorylation enrichment (FGFR1) | phosphorylation enrichment (Hck) | phosphorylation enrichment (Fes) | phosphorylation enrichment (EPHB2) | phosphorylation enrichment (Jak2) | phosphorylation enrichment (FGFR3) | phosphorylation enrichment (AncSZ) | phosphorylation enrichment (MERTK) | phosphorylation enrichment (Fyn) | phosphorylation enrichment (Fer (mouse)) | phosphorylation enrichment (EPHB1) | phosphorylation enrichment (c-Abl (mouse))
SDMGQYQCLVF [AXL_Y115_T112M] | 0.437 | 0.726 | 0.916 | 1.97 | 2.05 | 3.14 | 1.22 | 0.991 | 0.933 | 1.89 | 1.3 | 1.84 | 2.35 | 3.38 | 0.923 | 1.57
SDVLSYGVTMW [ZAP70_Y525_W523L] | 0.474 | 0.837 | 0.699 | 0.531 | 0.493 | 0.475 | 1.03 | 0.604 | 1.04 | 0.642 | 0.922 | 0.342 | 0.449 | 0.523 | 0.626 | 0.645
SDYYAYSPVRE [H6PD_Y449] | 1.13 | 1.06 | 1.48 | 7.18 | 16.3 | 8.79 | 0.832 | 23.7 | 11.2 | 14.8 | 6.22 | 10.7 | 9.64 | 12.9 | 17.5 | 12.9
SENPKYPEVGD [TMEM43_Y233] | 0.482 | 1.27 | 0.594 | 0.584 | 0.6 | 0.536 | 1.2 | 0.561 | 0.891 | 0.734 | 1.01 | 0.522 | 0.616 | 0.424 | 0.459 | 0.822
SFLFHYADDSF [RAB3C_Y50_R49H] | 1.55 | 1.09 | 1.08 | 0.466 | 0.438 | 0.399 | 1.12 | 0.549 | 0.958 | 0.671 | 0.905 | 0.412 | 0.476 | 0.465 | 0.498 | 0.718
SFLSFYTSHVQ [NEFL_Y443_P440L_YF] | 1.25 | 1.41 | 1.23 | 0.462 | 0.531 | 0.428 | 1.3 | 0.697 | 1.1 | 0.682 | 1.21 | 0.533 | 0.421 | 0.503 | 0.758 | 0.693
SGAWSYNTSTE [SELE_Y24] | 0.536 | 0.802 | 0.886 | 0.378 | 0.52 | 0.379 | 0.748 | 0.502 | 0.881 | 0.621 | 0.788 | 0.447 | 0.499 | 0.382 | 0.458 | 0.55
SGIFQYIIAKF [FOXL2_Y83_YF] | 0.763 | 1.35 | 1.27 | 0.561 | 0.639 | 0.546 | 1.13 | 0.564 | 1.07 | 0.704 | 1.14 | 0.518 | 0.496 | 0.503 | 0.602 | 0.84
SGSIHYSHVPR [GLB1_Y57_R59H] | 0.593 | 0.745 | 1.55 | 0.383 | 0.451 | 0.451 | 0.79 | 0.451 | 0.6 | 0.518 | 0.681 | 0.425 | 0.35 | 0.606 | 0.426 | 0.658
SHISGYAALRR [RAPH1_Y1226_T1228A] | 0.318 | 0.56 | 0.51 | 0.44 | 0.361 | 0.431 | 1.04 | 0.476 | 0.561 | 0.554 | 0.836 | 0.446 | 0.494 | 0.432 | 0.328 | 0.726
SHLSSYTTHPQ [NIPBL_Y195_P192L] | 0.482 | 0.714 | 0.575 | 0.419 | 0.435 | 0.44 | 0.726 | 0.393 | 0.663 | 0.591 | 0.569 | 0.399 | 0.451 | 0.392 | 0.389 | 0.534
SHMVNYQPYRK [TEX37_Y25_D24N] | 0.472 | 0.686 | 0.924 | 0.401 | 0.394 | 0.396 | 0.49 | 0.332 | 0.385 | 0.353 | 0.528 | 0.351 | 0.375 | 0.293 | 0.317 | 0.368
SHNELYFEAAE [VANGL1_Y344_E347A_YF] | 0.544 | 0.763 | 0.614 | 0.522 | 1.13 | 0.656 | 1.04 | 0.733 | 0.781 | 1.1 | 1.11 | 0.543 | 0.591 | 0.476 | 0.509 | 0.624
SHNKYYMLVAH [MFSD8_Y134_R139H] | 2.35 | 1.69 | 30 | 0.418 | 6.21 | 0.533 | 0.757 | 0.651 | 1.32 | 4.22 | 0.821 | 3.19 | 0.418 | 1.09 | 1.06 | 0.574
SIKDKHVTALY [KCNH2_Y611_Y611H] | 0.497 | 0.899 | 0.572 | 0.44 | 0.408 | 0.397 | 0.61 | 0.405 | 0.43 | 0.405 | 0.587 | 0.345 | 0.409 | 0.388 | 0.387 | 0.529
SISLKYEGRVF [ABL1_Y167_R166K_YF] | 0.489 | 0.86 | 0.987 | 0.398 | 0.482 | 0.553 | 1.31 | 0.609 | 1.13 | 0.771 | 1.05 | 0.382 | 0.477 | 0.565 | 0.655 | 0.661

Reference: the supplement of paper PMC10065799, “High-throughput profiling of sequence recognition by tyrosine kinases and SH2 domains using bacterial peptide display” (eLife, 2023)
